Literature values in PMC3909715.
Where two headings read alike, the source gives them in different places.

Columns and labels:
[1] = biological target: T1, Cys34 (UniProt position 58, QYLQQCPFEDH); experiment: kinetics; settings: reduced thiol
[2] = biological target: T1, Cys34; experiment: chemical modification; settings: reduced thiol; ligand state not stated
[3] = biological target: T1, Cys34; settings: reduced thiol (HSA-SH); ligand state not stated

Human serum albumin (HSA) (Homo sapiens)
pKa ([1]; ligand-free (fatty acid-free) HSA): 7.9±0.1
pKa ([1]; ligand state not stated): about 8
pKa [2]: about 8
pKa [3]: <7
